PMC10889554

Experiments:
[1] = biological target: human cathepsin K (human) (UniProt P43235)
[2] = biological target: human cathepsin L (human)
[3] = biological target: human cathepsin V (human) (UniProt O60911)
[4] = biological target: human cathepsin K (human) (UniProt P43235); remark: listed apart in the source
[5] = biological target: human cathepsin K (human) (UniProt P43235); assay: enzyme inhibition kinetics (fluorogenic peptide substrate activity assay); inhibitor preincubated with protease 15 min, 37 °C; IC50 from residual velocities, Ki by the Cheng-Prusoff equation; 50 mM sodium acetate pH 5.5, 0.1% polyethylene glycol 1500, 2.5 mM dithiothreitol (cathepsins L, K, V, B, F, C and papain; 50 mM NaCl for cathepsin C)
[6] = biological target: human cathepsin L (human); assay: as above
[7] = biological target: human cathepsin V (human) (UniProt O60911); assay: as above

human cathepsin V (human), sequence (O60911 114-334): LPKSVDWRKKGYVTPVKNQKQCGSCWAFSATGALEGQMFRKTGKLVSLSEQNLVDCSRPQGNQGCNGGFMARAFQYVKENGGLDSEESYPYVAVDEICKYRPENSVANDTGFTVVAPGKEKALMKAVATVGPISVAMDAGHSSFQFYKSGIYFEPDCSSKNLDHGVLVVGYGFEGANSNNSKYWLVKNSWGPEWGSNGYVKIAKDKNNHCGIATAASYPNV
human cathepsin K (human), sequence (P43235 115-329): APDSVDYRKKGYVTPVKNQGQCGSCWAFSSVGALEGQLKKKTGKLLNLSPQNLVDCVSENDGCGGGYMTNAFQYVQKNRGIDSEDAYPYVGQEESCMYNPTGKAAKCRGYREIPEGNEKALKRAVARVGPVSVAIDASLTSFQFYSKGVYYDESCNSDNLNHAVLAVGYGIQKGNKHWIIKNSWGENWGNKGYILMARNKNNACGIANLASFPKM

Substance | % inhibition of cathepsin K activity by IrThy with chondroitin-4-sulfate at 10 µg/mL [1] | % inhibition of cathepsin K activity by IrThy with chondroitin-6-sulfate at 10 µg/mL [1] | % inhibition of cathepsin K activity by IrThy, no GAG, pH 5.5 [1] | change of % inhibition of cathepsin L activity by IrThy with GAGs at 10 µg/mL [2] | % inhibition of cathepsin V activity by IrThy, no GAG, pH 5.5 [3] | reduction of inhibition of cathepsin K activity by IrThy with 0.3 M NaCl, without heparin [4] | Ki [5] | Ki [6] | Ki [7]
Ir-thyropin (IrThy), recombinant full-length mature protein (natural protein) | 16% | 23% | 50% | < 15% | 25% | 20% | 56.9 nM | 201 nM | 34.7 nM
IrThy-Cd, recombinant C-terminal Tg1 domain of IrThy (domain or fragment) | – | – | – | – | – | – | 53.1 nM | 795 nM | 40.7 nM
